Among the data in doi:10.1101/2022.01.21.477263 are stoichiometry N values, retold here.

Assay in all cases: crystal structure
For assay [1], the target named is HIV-1 (M) CA R120 (arginine restored at CA position 120) (HIV-1 group M).
Assay [2] has as its target HIV-1 (M-group) CA Q50Y, disulfide-stabilised hexamer construct (A14C, E45C, Q50Y, W184A, M185A) (HIV-1 group M).
Assay [3] addresses HIV-1 (O-group) CA, disulfide-stabilised hexamer construct (A14C, E45C, W185A, M186A) (HIV-1 group O).
Assay [4] has as its target SIVcpz CA, disulfide-stabilised hexamer construct (P14C, E45C, W184A, M185A) (SIVcpz (SIVcpzPtt)).
In assay [5] the target is SIVmac CA, disulfide-stabilised hexamer construct (P13C, E44C, W182A, M183A) (SIVmac).

Broadly, the stoichiometry N is the number of molecules, sites or subunits per partner or assembly. As to “HIV-1 (M) CA R120 (arginine restored at CA position 120) (natural protein)”, the stoichiometry N in assay [1] came out at 6. “HIV-1 (M-group) CA Q50Y, disulfide-stabilised hexamer construct (A14C, E45C, Q50Y, W184A, M185A) (natural protein)” came in with a stoichiometry N in assay [2] of 6. In the case of “HIV-1 (O-group) CA, disulfide-stabilised hexamer construct (A14C, E45C, W185A, M186A) (natural protein)”, the stoichiometry N in assay [3] was found to be 6.

“SIVcpz CA, disulfide-stabilised hexamer construct (P14C, E45C, W184A, M185A) (natural protein)” had a stoichiometry N in assay [4] of 6. “SIVmac CA, disulfide-stabilised hexamer construct (P13C, E44C, W182A, M183A) (natural protein)” came in with a stoichiometry N in assay [5] of 6.
